Among the data in paper PMC11417369, “DNA sequence and chromatin differentiate sequence-specific transcription factor binding in the human malaria parasite Plasmodium falciparum” are binding signal values, retold here.

The target in this series is AP2-I D3 (Plasmodium falciparum, UniProt Q8IJW6 910-1027). The experiment in a line: gcPBM; about 25 ug protein; PBS, 1% milk, 0.2 mg/ml BSA, salmon testes DNA, 0.03% Triton X-100. The note with it: tags: N-terminal GST (pGEX-4T-1), kept; label: surface-attached array probe.

B1: GTGCAC_site10493 (dsDNA)
DNA 1: AAAGGATTTATACTAGTGCAAAAATATAAAAATATA
DNA 2: TATATTTTTATATTTTTGCACTAGTATAAATCCTTT
On to B1, for which the binding signal was 9.74 ln median PBM intensity, better of two orientations.

B2: GTGCAC_negctrl_site370 (dsDNA)
DNA 1: AATATATGGTTTCATGATATTAAATTCAATTTAATG
DNA 2: CATTAAATTGAATTTAATATCATGAAACCATATATT
B2: the binding signal was 7.01 ln median PBM intensity, better of two orientations.

B3: GTGCAC_negctrl_site256 (dsDNA)
DNA 1: AATGATTTTAAATGAACATAATTTATATTCATAACA
DNA 2: TGTTATGAATATAAATTATGTTCATTTAAAATCATT
Turning to B3, the binding signal was 6.86 ln median PBM intensity, better of two orientations.

B4: GTGCAC_site10208 (dsDNA)
DNA 1: TTTTGTTATTAGAGGGTGCTTATAATGAACTCCTAC
DNA 2: GTAGGAGTTCATTATAAGCACCCTCTAATAACAAAA
Take B4: the binding signal was 9.87 ln median PBM intensity, better of two orientations.

B5: GTGCAC_negctrl_site309 (dsDNA)
DNA 1: AATGATGTTGTATTGTTTCGATATAACATCTAATTT
DNA 2: AAATTAGATGTTATATCGAAACAATACAACATCATT
With B5, the binding signal was 6.82 ln median PBM intensity, better of two orientations.

B6: GTGCAC_negctrl_site225 (dsDNA)
DNA 1: AAATGAATAAAATTTATTTATAAAAGAAAAATCACA
DNA 2: TGTGATTTTTCTTTTATAAATAAATTTTATTCATTT
Regarding B6, the binding signal was 7.04 ln median PBM intensity, better of two orientations.

B7: GTGCAC_site9599 (dsDNA)
DNA 1: TTATATGTATATATAGTGCAGAACAAAAGATTATAT
DNA 2: ATATAATCTTTTGTTCTGCACTATATATACATATAA
Consider B7, for which the binding signal was 9.82 ln median PBM intensity, better of two orientations.

B8: GTGCAC_site10457 (dsDNA)
DNA 1: TACAATATATTTATAGTGCATATTACTTTTAACTTT
DNA 2: AAAGTTAAAAGTAATATGCACTATAAATATATTGTA
Take B8: the binding signal was 9.8 ln median PBM intensity, better of two orientations.

B9: GTGCAC_site10627 (dsDNA)
DNA 1: TTAAGATACAAAAAAGTGCATATTTTTTAACAAAAA
DNA 2: TTTTTGTTAAAAAATATGCACTTTTTTGTATCTTAA
B9: the binding signal is 9.96 ln median PBM intensity, better of two orientations.

B10: GTGCAC_negctrl_site589 (dsDNA)
DNA 1: TTCTTTAATAAAATAATCTCAAAGAAAATTTTTTCT
DNA 2: AGAAAAAATTTTCTTTGAGATTATTTTATTAAAGAA
With B10, the binding signal was 7.02 ln median PBM intensity, better of two orientations.

B11: GTGCAC_negctrl_site156 (dsDNA)
DNA 1: TAACTTTTTTTTTTTTTTTTTTAACTTTTATGTAAT
DNA 2: ATTACATAAAAGTTAAAAAAAAAAAAAAAAAAGTTA
Take B11: the binding signal was 6.93 ln median PBM intensity, better of two orientations.

B12: GTGCAC_negctrl_site311 (dsDNA)
DNA 1: ATAAAATACCCTGATCTATTACATATTATATTCTGC
DNA 2: GCAGAATATAATATGTAATAGATCAGGGTATTTTAT
Take B12: the binding signal is 7.03 ln median PBM intensity, better of two orientations.

B13: GTGCAC_negctrl_site531 (dsDNA)
DNA 1: AAATAAATTAAAATAAATTAAATTAAATTAGCATTA
DNA 2: TAATGCTAATTTAATTTAATTTATTTTAATTTATTT
As for B13, the binding signal is 6.62 ln median PBM intensity, better of two orientations.

B14: GTGCAC_negctrl_site161 (dsDNA)
DNA 1: AGAAAAAAAAAAAAAAATAAAAAAATAAATAAATAA
DNA 2: TTATTTATTTATTTTTTTATTTTTTTTTTTTTTTCT
B14: the binding signal is 6.87 ln median PBM intensity, better of two orientations.

B15: GTGCAC_negctrl_site662 (dsDNA)
DNA 1: TTTTAATGAAATATCAAAAAAATTTATGATTTCAAA
DNA 2: TTTGAAATCATAAATTTTTTTGATATTTCATTAAAA
Turning to B15, the binding signal was 6.64 ln median PBM intensity, better of two orientations.

B16: GTGCAC_site10283 (dsDNA)
DNA 1: AAAATAATTTTATAAGTGCAAAATAGCTTATTTATA
DNA 2: TATAAATAAGCTATTTTGCACTTATAAAATTATTTT
For B16, the binding signal was 9.62 ln median PBM intensity, better of two orientations.

B17: GTGCAC_negctrl_site558 (dsDNA)
DNA 1: AAATAATATATTCTATATAATAAATTATAAATATAA
DNA 2: TTATATTTATAATTTATTATATAGAATATATTATTT
Turning to B17, the binding signal was 6.74 ln median PBM intensity, better of two orientations.

B18: GTGCAC_site9973 (dsDNA)
DNA 1: AATTAAAAGTGAAGAGTGCATAGAATTTTTTACTTT
DNA 2: AAAGTAAAAAATTCTATGCACTCTTCACTTTTAATT
For the molecule B18, the binding signal was 9.92 ln median PBM intensity, better of two orientations.

B19: GTGCAC_site10554 (dsDNA)
DNA 1: TATATATATATATGAGTGCATATGTGTAATATAAAA
DNA 2: TTTTATATTACACATATGCACTCATATATATATATA
In the case of B19, the binding signal was 9.85 ln median PBM intensity, better of two orientations.

B20: GTGCAC_negctrl_site307 (dsDNA)
DNA 1: AATAATAAACACAATCAAATAAAATATGAAATATAA
DNA 2: TTATATTTCATATTTTATTTGATTGTGTTTATTATT
In the case of B20, the binding signal was 6.89 ln median PBM intensity, better of two orientations.

B21: GTGCAC_site10475 (dsDNA)
DNA 1: TAATGTTCCTATATAGTGCAATTATGTTTTATTTCT
DNA 2: AGAAATAAAACATAATTGCACTATATAGGAACATTA
Regarding B21, the binding signal was 9.98 ln median PBM intensity, better of two orientations.

B22: GTGCAC_site10541 (dsDNA)
DNA 1: TTCAAATAAATAGTAGTGCATATTTATTAATGTAAA
DNA 2: TTTACATTAATAAATATGCACTACTATTTATTTGAA
On to B22, for which the binding signal is 9.69 ln median PBM intensity, better of two orientations.

B23: GTGCAC_negctrl_site587 (dsDNA)
DNA 1: AAAAAAATAAAATTATATAAAATAAATTTTTATAAT
DNA 2: ATTATAAAAATTTATTTTATATAATTTTATTTTTTT
As to B23, the binding signal was 6.82 ln median PBM intensity, better of two orientations.

B24: GTGCAC_negctrl_site234 (dsDNA)
DNA 1: GACAAAAAATTAAAATAAAATAATAATATAATAAAA
DNA 2: TTTTATTATATTATTATTTTATTTTAATTTTTTGTC
Consider B24, for which the binding signal was 6.9 ln median PBM intensity, better of two orientations.

B25: GTGCAC_negctrl_site616 (dsDNA)
DNA 1: TTATTTTTATTATAAATTATAAAATATAAATAAATA
DNA 2: TATTTATTTATATTTTATAATTTATAATAAAAATAA
Regarding B25, the binding signal is 7 ln median PBM intensity, better of two orientations.

B26: GTGCAC_negctrl_site643 (dsDNA)
DNA 1: TGTAGTCATTAGTCAAATTAGAATTAAATATATATT
DNA 2: AATATATATTTAATTCTAATTTGACTAATGACTACA
B26: the binding signal is 6.93 ln median PBM intensity, better of two orientations.

B27: GTGCAC_site9771 (dsDNA)
DNA 1: GTACGTTTCTCCAGACTGCACTATACGACTCGTACA
DNA 2: TGTACGAGTCGTATAGTGCAGTCTGGAGAAACGTAC
On to B27, for which the binding signal was 9.61 ln median PBM intensity, better of two orientations.

B28: GTGCAC_negctrl_site345 (dsDNA)
DNA 1: TTTTTCTATATTTTCTTTTATAAAATATATAATTTT
DNA 2: AAAATTATATATTTTATAAAAGAAAATATAGAAAAA
Take B28: the binding signal was 6.92 ln median PBM intensity, better of two orientations.

B29: GTGCAC_negctrl_site664 (dsDNA)
DNA 1: AAAAAAAAAAAGATAAATACAAGTTACACAAAAAAA
DNA 2: TTTTTTTGTGTAACTTGTATTTATCTTTTTTTTTTT
Turning to B29, the binding signal is 6.94 ln median PBM intensity, better of two orientations.

B30: GTGCAC_negctrl_site203 (dsDNA)
DNA 1: TTGATGTATACAATGTAGATTATTTAATATTTCAAT
DNA 2: ATTGAAATATTAAATAATCTACATTGTATACATCAA
Consider B30, for which the binding signal is 7.03 ln median PBM intensity, better of two orientations.

B31: GTGCAC_negctrl_site494 (dsDNA)
DNA 1: AAGTTTAAGAAATAATTCATATTTACTTCCATCCTC
DNA 2: GAGGATGGAAGTAAATATGAATTATTTCTTAAACTT
On to B31, for which the binding signal was 7.03 ln median PBM intensity, better of two orientations.

B32: GTGCAC_site10325 (dsDNA)
DNA 1: TATATACATGTGAGAGTGCATATAGACATAAAAAAT
DNA 2: ATTTTTTATGTCTATATGCACTCTCACATGTATATA
Take B32: the binding signal was 10 ln median PBM intensity, better of two orientations.

B33: GTGCAC_negctrl_site139 (dsDNA)
DNA 1: TGATGAAAATCTACATGAATGTTTTTATATCTATAT
DNA 2: ATATAGATATAAAAACATTCATGTAGATTTTCATCA
With B33, the binding signal is 6.88 ln median PBM intensity, better of two orientations.

B34: GTGCAC_negctrl_site473 (dsDNA)
DNA 1: GGGTCAAGTAAGCTGTTCCTCTTTTTCTTTCTCACT
DNA 2: AGTGAGAAAGAAAAAGAGGAACAGCTTACTTGACCC
Take B34: the binding signal was 6.97 ln median PBM intensity, better of two orientations.

B35: GTGCAC_site10046 (dsDNA)
DNA 1: TTTTTGTTATATAAAGTGCAGTGACAAGCAGTTTAA
DNA 2: TTAAACTGCTTGTCACTGCACTTTATATAACAAAAA
B35: the binding signal is 9.65 ln median PBM intensity, better of two orientations.

B36: GTGCAC_negctrl_site123 (dsDNA)
DNA 1: TCCTTAAAAATCTAAAAAGAAAAAAACATATATTTT
DNA 2: AAAATATATGTTTTTTTCTTTTTAGATTTTTAAGGA
On to B36, for which the binding signal is 6.9 ln median PBM intensity, better of two orientations.

B37: GTGCAC_negctrl_site37 (dsDNA)
DNA 1: AATAAATAAATAAATTAATAAATTAATAAATTAATA
DNA 2: TATTAATTTATTAATTTATTAATTTATTTATTTATT
On to B37, for which the binding signal is 6.84 ln median PBM intensity, better of two orientations.

B38: GTGCAC_negctrl_site543 (dsDNA)
DNA 1: AAATGTGTAAATATAATTAGTTTCACAAAACAAATA
DNA 2: TATTTGTTTTGTGAAACTAATTATATTTACACATTT
On to B38, for which the binding signal is 7.01 ln median PBM intensity, better of two orientations.

B39: GTGCAC_negctrl_site286 (dsDNA)
DNA 1: TCCTATCATTTATATTTTACTACATAATATTGATAA
DNA 2: TTATCAATATTATGTAGTAAAATATAAATGATAGGA
Regarding B39, the binding signal is 6.95 ln median PBM intensity, better of two orientations.

B40: GTGCAC_negctrl_site193 (dsDNA)
DNA 1: GCATATATTATATATTTATTTATTTTTTTTTTTTAA
DNA 2: TTAAAAAAAAAAAATAAATAAATATATAATATATGC
On to B40, for which the binding signal is 6.96 ln median PBM intensity, better of two orientations.

B41: GTGCAC_negctrl_site185 (dsDNA)
DNA 1: AAAAGAAAAATGTCATATGATATCATATATTTTATA
DNA 2: TATAAAATATATGATATCATATGACATTTTTCTTTT
On to B41, for which the binding signal was 6.79 ln median PBM intensity, better of two orientations.

B42: GTGCAC_negctrl_site80 (dsDNA)
DNA 1: TATTTTTTTTTCTTTTTATATATAATAATCTTCATT
DNA 2: AATGAAGATTATTATATATAAAAAGAAAAAAAAATA
For the molecule B42, the binding signal is 7 ln median PBM intensity, better of two orientations.
